Drawing on article PMC3093405, “A Motif Unique to the Human Dead-Box Protein DDX3 Is Important for Nucleic Acid Binding, ATP Hydrolysis, RNA/DNA Unwinding and HIV-1 Replication” (PLoS ONE, 2011), this text covers binding signal (fold (reference affinity)) and binding signal (fold reduced affinity vs DDX3wt) for 1 substance.

One data set concerns the target DDX3wt (Homo sapiens) (UniProt O00571). Nature of the data set: filter binding. Conditions: no ATP hydrolysis; 3 mM Mg2+; 50 µg/ml salmon sperm DNA; EMSA: on ice, protein buffer 25 mM Tris-HCl pH 7.5, 0.5 mM DTT, 20% glycerol, 100 mM NaCl plus 5x binding buffer (10% glycerol, 5 mM MgCl2, 2.5 mM EDTA pH 8 …). Background: In EMSA bound probe runs differently from free probe, usually more slowly.

Data set [1] addresses DDX3ΔINS del250-259 (Homo sapiens) (UniProt O00571). Nature of the data set: filter binding. To be noted: no ATP hydrolysis; 3 mM Mg2+; 50 µg/ml salmon sperm DNA; EMSA: on ice, protein buffer 25 mM Tris-HCl pH 7.5, 0.5 mM DTT, 20% glycerol, 100 mM NaCl plus 5x binding buffer (10% glycerol, 5 mM MgCl2, 2.5 mM EDTA pH 8 …).

Sequence of DDX3wt (Homo sapiens) (O00571 whole entry): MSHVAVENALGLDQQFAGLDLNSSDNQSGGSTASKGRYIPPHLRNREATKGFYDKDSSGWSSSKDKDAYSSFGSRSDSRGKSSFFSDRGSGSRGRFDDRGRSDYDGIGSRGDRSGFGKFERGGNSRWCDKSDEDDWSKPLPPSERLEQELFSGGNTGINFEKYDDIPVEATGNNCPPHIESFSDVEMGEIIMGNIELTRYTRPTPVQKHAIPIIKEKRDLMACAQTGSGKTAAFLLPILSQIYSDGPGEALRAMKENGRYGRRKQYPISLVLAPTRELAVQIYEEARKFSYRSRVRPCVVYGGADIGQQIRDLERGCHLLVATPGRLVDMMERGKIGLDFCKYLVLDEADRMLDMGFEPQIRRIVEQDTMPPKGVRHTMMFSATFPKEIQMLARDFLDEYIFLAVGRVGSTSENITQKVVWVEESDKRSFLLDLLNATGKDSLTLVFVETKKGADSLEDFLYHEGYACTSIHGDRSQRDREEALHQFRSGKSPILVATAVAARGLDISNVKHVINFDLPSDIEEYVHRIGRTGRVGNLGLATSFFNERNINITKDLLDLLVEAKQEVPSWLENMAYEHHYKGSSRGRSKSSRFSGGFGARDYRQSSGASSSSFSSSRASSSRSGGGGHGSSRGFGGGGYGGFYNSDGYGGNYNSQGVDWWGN
Sequence of DDX3ΔINS del250-259 (Homo sapiens) (O00571 other isoform, or with tags, fused parts or gaps mutant): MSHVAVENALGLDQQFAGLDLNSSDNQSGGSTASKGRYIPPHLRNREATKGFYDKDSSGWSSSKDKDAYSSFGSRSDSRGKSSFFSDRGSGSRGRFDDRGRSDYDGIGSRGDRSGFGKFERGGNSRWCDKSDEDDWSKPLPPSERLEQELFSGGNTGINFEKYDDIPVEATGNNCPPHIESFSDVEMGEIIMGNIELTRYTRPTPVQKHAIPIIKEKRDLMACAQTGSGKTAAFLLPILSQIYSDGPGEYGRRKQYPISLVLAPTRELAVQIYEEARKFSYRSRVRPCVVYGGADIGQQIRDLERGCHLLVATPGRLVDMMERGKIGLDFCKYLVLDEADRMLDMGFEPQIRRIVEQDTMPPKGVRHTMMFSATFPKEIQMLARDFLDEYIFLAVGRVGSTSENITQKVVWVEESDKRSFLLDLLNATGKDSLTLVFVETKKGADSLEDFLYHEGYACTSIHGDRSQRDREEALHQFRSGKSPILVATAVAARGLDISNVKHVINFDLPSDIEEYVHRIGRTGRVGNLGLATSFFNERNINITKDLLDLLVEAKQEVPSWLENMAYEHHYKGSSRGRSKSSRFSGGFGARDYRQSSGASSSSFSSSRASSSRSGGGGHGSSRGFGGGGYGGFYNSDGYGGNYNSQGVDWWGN

Regarding 18/36mer dsDNA, the binding signal (fold (reference affinity)) with DDX3wt (Homo sapiens) turned out to be 1. Also, in data set [1], the binding signal (fold reduced affinity vs DDX3wt) came to 2.1.
